From US20220168345A1 (published 2022)

Biological target: T1, NY-ESO-1 peptide on HLA-B*07:02 (human)
T1 peptide: APRGPHGGAASGL
Assay: multimer staining
Excerpt: FIGS. 3A-3I are graphical representations of positive staining of Jurkat 76/CD8 cells transduced with B*07:02/NY-ESO-1₆₀₋₇₂ TCR genes with a cognate multimer. Jurkat 76/CD8 cells transduced with the B*07:02/NY-ESO-1₆₀₋₇₂ TCR (FIGS. 3B, 3E, and 3H) were stained with the B*07:02/NY-ESO-1₆₀₋₇₂ multimer (FIG. 3B). The B*07:02/MAGE-A1₂₈₉₋₂₉₇ multimer (FIGS. 3D, 3E, and 3F), B*07:02/unexchanged multimer (FIGS. 3G, 3H, and 3I), and B*07:02/MAGE-A1₂₈₉₋₂₉₇ TCR (FIGS. 3C, 3F, and 3I) were employed as controls, as well as Jurkat 76/CD8 not transduced with a TCR (FIGS. 3A, 3D, and 3G). The percentage of multimer⁺ CD8⁺ cells is shown.
T cells (1×10⁵) were incubated for 30 minutes at 37° C. in the presence of 50 nM dasatinib (LC laboratories). The cells were then washed and incubated with 5-10 μg/ml of multimer for 30 minutes at room temperature, and R-phycoerythrin-conjugated AffiniPure Fab fragment goat anti-mouse IgG1 (Jackson ImmunoResearch Laboratories) was added for 15 minutes at 4° C. Next, the cells were washed three times and costained with an anti-CD8 mAb for 15 minutes at 4° C. Dead cells were finally discriminated using the LIVE/DEAD Fixable Dead Cell Stain kit.

B1: B*07:02/NY-ESO-1 60-72 TCR (TCR, V domains shown)
Valpha: AQSVTQLDSHVSVSEGTPVLLRCNYSSSYSPSLFWYVQHPNKGLQLLLKYTSAATLVKGINGFEAEFKKSETSFHLTKPSAHMSDAAEYFCVVSFSGNTPLVFGKGTRLSVIA
Vbeta: DTGVSQDPRHKITKRGQNVTFRCDPISEHNRLYWYRQTLGQGPEFLTYFQNEAQLEKSRLLSDRFSAERPKGSFSTLEIQRTEQGDSAMYLCASSSSYSNQPQHFGDGTRLSIL
binding result: recognises
